Measurements taken from publication PMC12152739.

B1: IMP-1 (Serratia marcescens) (protein)
chain: TAAESLPDLKIEKLDEGVYVHTSFEEVNGWGVVPKHGLVVLVNAEAYLIDTPFTAKDTEKLVTWFVERGYKIKGSISSHFHSDSTGGIEWLNSRSIPTYASELTNELLKKDGKVQATNSFSGVNYWLVKNKIEVFYPGPGHTPDNVVVWLPERKILFGGCFIKPYGLGNLGDANIEAWPKSAKLLKSKYGKAKLVVPSHSEVGDASLLKLTLEQAVKGLNESKKPSKPSN
B2: NDM-1 (Klebsiella pneumoniae) (protein)
chain: METGDQRFGDLVFRQLAPNVWQHTSYLDMPGFGAVASNGLIVRDGGRVLVVDTAWTDDQTAQILNWIKQEINLPVALAVVTHAHQDKMGGMDALHAAGIATYANALSNQLAPQEGMVAAQHSLTFAANGWVEPATAPNFGPLKVFYPGPGHTSDNITVGIDGTDIAFGGCLIKDSKAKSLGNLGDADTEHYAASARAFGAAFPKASMIVMSHSAPDSRAAITHTARMADKLR

Assays:
Format in all cases: biochemical
[1] = substrate: CC(C)(O/N=C(\C(=O)N[C@@H]1C(=O)N2C(C(=O)[O-])=C(C[N+]3(CCNC(=O)c4ccc(O)c(O)c4Cl)CCCC3)CS[C@H]12)c1csc(N)n1)C(=O)O; experiment: Steady-state hydrolysis kinetics and UV difference spectra with purified IMP-1; conditions: other: FDC hydrolysis by IMP-1, 30 °C, pH 7.5
[2] = substrate: CC(C)(O/N=C(\C(=O)N[C@@H]1C(=O)N2C(C(=O)[O-])=C(C[n+]3ccccc3)CS[C@H]12)c1csc(N)n1)C(=O)O; experiment: Steady-state hydrolysis kinetics and UV difference spectra with purified NDM-1; conditions: other: substrate hydrolysis by NDM-1, 30 °C, pH 7.5
[3] = substrate: CC(C)(O/N=C(\C(=O)N[C@@H]1C(=O)N2C(C(=O)[O-])=C(C[N+]3(CCNC(=O)c4ccc(O)c(O)c4Cl)CCCC3)CS[C@H]12)c1csc(N)n1)C(=O)O; experiment: as above; conditions: other: substrate hydrolysis by NDM-1, 30 °C, pH 7.5

Protein	kcat [1] [s⁻¹]	kcat [2] [s⁻¹]	kcat/Km [2] [M⁻¹ s⁻¹]	kcat [3] [s⁻¹]
B1	1.25 ± 0.23			
B2		187 ± 13	4.16e+06	84 ± 11
